From patent US8147838B2, “Peptide” (priority 2005, dated 2012)

Biological target: MHC class I allele B*0702 (B7) (Homo sapiens, UniProt P01889)
Test: iTopia peptide binding assay, B*0702
Conditions: percent of positive control peptide binding; peptide at 1.11×10^−5M
Protocol: (§1) The 9 mers were tested for Peptide Binding, Off Rate and Affinity using iTopia Epitope Discovery System in accordance with the manufacturer's instructions. Briefly, 96 well microtitre plates coated with MHC molecules representing different MHC alleles are used to identify candidate peptides. […] Determinations are performed in duplicate using an ELISA plate reader and included allele specific positive controls.
(§2) i) Peptide Binding—This assay measures the ability of individual peptides to bind to the MHC molecules under standardized optimal binding conditions. The assay is performed for all the test peptides across the selected MHC alleles. The test peptides identified as “binders” are characterized further in terms of affinity and dissociation experiments.
(§3) Following a period of binding under optimal conditions, excess antibody is removed and a measurement of total fluorescence taken (D).
(§4) The binding of the test peptides to the MHC molecules was performed at 1.11×10^−5M of peptide under optimal, standardised test conditions. A control peptide was run in parallel on the same plate and at the same concentration as the test peptides.
(§5) The level of binding is expressed as a percent of positive control peptide binding for each allele.

Row | Sequence | Peptide binding, MHC Class I Molecule B*0702
1 | RDHMEGYHY [Peptide 197] | 5 % of control
2 | RDVLAQLPS [Peptide 114] | 4 % of control
3 | RQLDLSHNP [Peptide 73] | 4 % of control
4 | RRLELASNH [Peptide 107] | 3 % of control
5 | RRPPLAELA [Peptide 57] | 9 % of control
6 | RTVKCVNRN [Peptide 37] | 3 % of control
7 | SADLDCDPI [Peptide 170] | 3 % of control
8 | SAQPPLPDQ [Peptide 27] | 3 % of control
9 | SEAARTVKC [Peptide 35] | 0 % of control
10 | SFRNLTHLE [Peptide 127] | 0 % of control
11 | SGSNASVSA [Peptide 82] | 11 % of control
12 | SLRQLDLSH [Peptide 72] | 13 % of control
13 | SSSPTSSAS [Peptide 16] | 8 % of control
14 | TDLPAYVRN [Peptide 44] | 2 % of control
15 | TEVPTDLPA [Peptide 42] | 0 % of control
16 | VKCVNRNLT [Peptide 38] | 2 % of control
17 | VQGKDRLTC [Peptide 158] | 6 % of control
18 | VRNLFLTGN [Peptide 47] | 3 % of control
19 | VSAPSPLVE [Peptide 85] | 3 % of control
20 | VSSSSPTSS [Peptide 15] | 2 % of control
21 | VVAALLAGR [Peptide 100] | 7 % of control
22 | YHYRYEINA [Peptide 200] | 5 % of control
23 | YRYEINADP [Peptide 201] | 3 % of control

Biological target: MHC class I allele A*0301 (A3) (Homo sapiens, UniProt P04439)
Test: iTopia peptide binding assay, A*0301
Conditions: percent of positive control peptide binding; peptide at 1.11×10^−5M
Protocol: as §1, §2, §3, §4, §5

Row | Sequence | Peptide binding, MHC Class I Molecule A*0301
24 | RDHMEGYHY [Peptide 197] | 3 % of control
25 | RDVLAQLPS [Peptide 114] | 3 % of control
26 | RQLDLSHNP [Peptide 73] | 2 % of control
27 | RRLELASNH [Peptide 107] | 3 % of control
28 | RRPPLAELA [Peptide 57] | 2 % of control
29 | RTVKCVNRN [Peptide 37] | 12 % of control
30 | SADLDCDPI [Peptide 170] | 4 % of control
31 | SAQPPLPDQ [Peptide 27] | 0 % of control
32 | SEAARTVKC [Peptide 35] | 0 % of control
33 | SFRNLTHLE [Peptide 127] | 1 % of control
34 | SGSNASVSA [Peptide 82] | 3 % of control
35 | SLRQLDLSH [Peptide 72] | 11 % of control
36 | SSSPTSSAS [Peptide 16] | 2 % of control
37 | TDLPAYVRN [Peptide 44] | 1 % of control
38 | TEVPTDLPA [Peptide 42] | 0 % of control
39 | VKCVNRNLT [Peptide 38] | 0 % of control
40 | VQGKDRLTC [Peptide 158] | 6 % of control
41 | VRNLFLTGN [Peptide 47] | 0 % of control
42 | VSAPSPLVE [Peptide 85] | 7 % of control
43 | VSSSSPTSS [Peptide 15] | 2 % of control
44 | VVAALLAGR [Peptide 100] | 49 % of control
45 | YHYRYEINA [Peptide 200] | 1 % of control
46 | YRYEINADP [Peptide 201] | 1 % of control

Biological target: MHC class I allele A*0101 (A1) (Homo sapiens, UniProt P04439, A114D/A174V/A182V/D101N/D185E/E176A/E190D/L180R/Q94H/R68K/S129P/T187R/V100A/V91M/W191G)
Test: iTopia peptide binding assay, A*0101
Conditions: percent of positive control peptide binding; peptide at 1.11×10^−5M
Protocol: as §1, §2, §3, §4, §5

Row | Sequence | Peptide binding, MHC Class I Molecule A*0101
47 | RDHMEGYHY [Peptide 197] | 11 % of control
48 | RDVLAQLPS [Peptide 114] | 1 % of control
49 | RQLDLSHNP [Peptide 73] | 2 % of control
50 | RRLELASNH [Peptide 107] | 0 % of control
51 | RRPPLAELA [Peptide 57] | 2 % of control
52 | RTVKCVNRN [Peptide 37] | 7 % of control
53 | SADLDCDPI [Peptide 170] | 0 % of control
54 | SAQPPLPDQ [Peptide 27] | 2 % of control
55 | SEAARTVKC [Peptide 35] | 5 % of control
56 | SFRNLTHLE [Peptide 127] | 1 % of control
57 | SGSNASVSA [Peptide 82] | 5 % of control
58 | SLRQLDLSH [Peptide 72] | 0 % of control
59 | SSSPTSSAS [Peptide 16] | 4 % of control
60 | TDLPAYVRN [Peptide 44] | 7 % of control
61 | TEVPTDLPA [Peptide 42] | 3 % of control
62 | VKCVNRNLT [Peptide 38] | 6 % of control
63 | VQGKDRLTC [Peptide 158] | 0 % of control
64 | VRNLFLTGN [Peptide 47] | 0 % of control
65 | VSAPSPLVE [Peptide 85] | 3 % of control
66 | VSSSSPTSS [Peptide 15] | 3 % of control
67 | VVAALLAGR [Peptide 100] | 9 % of control
68 | YHYRYEINA [Peptide 200] | 0 % of control
69 | YRYEINADP [Peptide 201] | 0 % of control

System: PBMCs recovered from patients treated with TroVax
Test: IFNγ ELISPOT with PBMCs from TroVax treated patients
Format: cell-based, human
Conditions: 10 mer vs 9 mer experiment, absence of A2 blocking antibody, FIG. 14

Row | Sequence | IFNγ ELISPOT response
70 | ARLALVLLGW [10 mer peptide 10] | no response
71 | FLTGNQLAVL [10 mer peptide 49] | response
72 | MPGGCSRGPA [10 mer peptide 1] | no response
73 | NLFLTGNQLA [10 mer peptide 48] | no response
74 | NLTEVPTDLP [10 mer peptide 41] | no response
75 | RLARLALVLL [10 mer peptide 9] | response
76 | RLRLARLALV [10 mer peptide 8] | response
77 | TGNQLAVLPA [10 mer peptide 50] | no response

Same assay, conditions: PBMCs of patient TV2-018, X+6 wk and X+10 wk, FIG. 11-13

Row | Sequence | IFNγ ELISPOT response
78 | FLTGNQLAVL [10 mer peptide 49] | capable of inducing an ex-vivo IFNγ response
79 | NIRDACRDHM [10 mer peptide 194] | capable of inducing an ex-vivo IFNγ response
80 | RLARLALVLL [10 mer peptide 9] | capable of inducing an ex-vivo IFNγ response
81 | RLRLARLALV [10 mer peptide 8] | capable of inducing an ex-vivo IFNγ response

Same assay, conditions: presence of A2 blocking antibody

Row | Sequence | IFNγ ELISPOT response with A2 blocking antibody (clone BB7.2) / A2 restriction
82 | FLTGNQLAVL [10 mer peptide 49] | A2 restricted
83 | RLARLALVLL [10 mer peptide 9] | A2 restricted

Biological target: MHC class I allele A*0201 (A2) (Homo sapiens, UniProt P04439, D140Y/D185E/D98H/E176V/E277Q/G131W/G231S/I119V/I121R/I166T/I218V/L300P/L318F/N151K/N90K/P208A/P217A/Q86G/Q94H/R138H/R169H/T345S)
Test: iTopia peptide binding assay, A*0201
Conditions: percent of positive control peptide binding; peptide at 1.11×10^−5M
Protocol: as §1, §2, §3, §4, §5

Row | Sequence | Peptide binding, MHC Class I Molecule A*0201
84 | RDHMEGYHY [Peptide 197] | 6 % of control
85 | RDVLAQLPS [Peptide 114] | 15 % of control
86 | RQLDLSHNP [Peptide 73] | 8 % of control
87 | RRLELASNH [Peptide 107] | 5 % of control
88 | RRPPLAELA [Peptide 57] | 11 % of control
89 | RTVKCVNRN [Peptide 37] | 12 % of control
90 | SADLDCDPI [Peptide 170] | 4 % of control
91 | SAQPPLPDQ [Peptide 27] | 13 % of control
92 | SEAARTVKC [Peptide 35] | 1 % of control
93 | SFRNLTHLE [Peptide 127] | 1 % of control
94 | SGSNASVSA [Peptide 82] | 15 % of control
95 | SLRQLDLSH [Peptide 72] | 6 % of control
96 | SSSPTSSAS [Peptide 16] | 7 % of control
97 | TDLPAYVRN [Peptide 44] | 3 % of control
98 | TEVPTDLPA [Peptide 42] | 7 % of control
99 | VKCVNRNLT [Peptide 38] | 3 % of control
100 | VQGKDRLTC [Peptide 158] | 4 % of control
101 | VRNLFLTGN [Peptide 47] | 5 % of control
102 | VSAPSPLVE [Peptide 85] | 13 % of control
103 | VSSSSPTSS [Peptide 15] | 9 % of control
104 | VVAALLAGR [Peptide 100] | 11 % of control
105 | YHYRYEINA [Peptide 200] | 7 % of control
106 | YRYEINADP [Peptide 201] | 0 % of control
